Drawing on patent US20230151091A1 (NEW YORK UNIVERSITY, published 2023), this text covers R0, koff and kon for one molecule.

The koff is a measure of how fast the partners let go of each other. Usually kon stands for the rate constant with which the complex forms. A low value points to slower complex formation.

The target in the test is T1, rat MuSK (rat, UniProt Q62838 22-494, limits assumed).
T1 construct: Coated on Biacore chip (200RU) or ELISA plate
T1 sequence (looked up): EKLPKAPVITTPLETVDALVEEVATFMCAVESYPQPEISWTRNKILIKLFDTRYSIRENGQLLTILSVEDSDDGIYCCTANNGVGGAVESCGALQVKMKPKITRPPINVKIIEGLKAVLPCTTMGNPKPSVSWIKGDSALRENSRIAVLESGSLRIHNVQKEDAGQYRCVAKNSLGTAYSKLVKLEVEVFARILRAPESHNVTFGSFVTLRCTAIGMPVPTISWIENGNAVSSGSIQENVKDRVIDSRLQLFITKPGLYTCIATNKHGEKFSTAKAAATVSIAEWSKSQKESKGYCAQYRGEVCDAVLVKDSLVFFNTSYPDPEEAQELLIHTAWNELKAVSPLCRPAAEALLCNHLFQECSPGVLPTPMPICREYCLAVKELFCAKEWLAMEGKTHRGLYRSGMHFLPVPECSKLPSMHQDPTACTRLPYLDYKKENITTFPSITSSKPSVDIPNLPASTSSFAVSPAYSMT
In words: Biacore, MuSK on chip, association pH 7.4, dissociation pH 5.5. The procedure, abridged:
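MuSK was immobilized on the sensor chip at 200 RU, and antibody was injected at 66.7 nM. Association ran at pH 7.4 and dissociation at pH 5.5, and kinetic parameters were calculated from the sensorgrams.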
A general note: SPR reads the build-up and loss of mass on a sensor chip optically.

B1: 3B2 (antibody, V domains shown)
VH: ELQLVESGGGLVQPGGSLRLSCAASGFTFDDYGMSWVRQAPGKGLEWVSAIPWNGGSTYYKESVKGRFTISRDNAKKTLYLQMNSLKSEDTAVYYCAKRSGRIAFGALDAWGQGTLVTVSS
VL: QAVVTQEPSLSVSPGGTVTLTCGLSSGSVTSSNYPDWYQQTPGQAPRGLIYSTDSRHSGVPSRFSGSISGNKAALTITGAQSEDEADYYCGLYMYSGSKNYVFGGGTKLTVL
notes: human IgG1 with the LALA mutations (L234A, L235A); produced in HEK293 cells; also called 3B2 mAb; parental 3B2 Ab
The molecule B1 had an R0 of 174 RU, a koff of 0.0062 s⁻¹ and a kon of 980000 M⁻¹ s⁻¹.
